{"source": "paper doi:10.1101/2024.10.07.617049", "about": "(bioRxiv, 2024)", "binders": {"B1": {"name": "ASB8^ΔN16 (domain or fragment)", "chain": "SLSERLIRTIAAIRSFPHDNVEDLIRGGADVNCTHGTLKPLHCACMVSDADCVELLLEKGAEVNALDGYNRTALHYAAEKDEACVEVLLEYGANPNALDGNRDTPLHWAAFKNNAECVRALLESGASVNALDYNNDTPLSWAAMKGNLESVSILLDYGAEVRVINLIGQTPISRLVALLVRGLGTEKEDSCFELLHRAVGHFELRKNGTMPREVARDPQLCEKLTVLCSAPGTLKTLARYAVRRSLGLQYLPDAVKGLPLPASLKEYLLLLE"}, "B2": {"name": "ASB8^ΔN16•ELOB/C (complex)", "chain 1": "SLSERLIRTIAAIRSFPHDNVEDLIRGGADVNCTHGTLKPLHCACMVSDADCVELLLEKGAEVNALDGYNRTALHYAAEKDEACVEVLLEYGANPNALDGNRDTPLHWAAFKNNAECVRALLESGASVNALDYNNDTPLSWAAMKGNLESVSILLDYGAEVRVINLIGQTPISRLVALLVRGLGTEKEDSCFELLHRAVGHFELRKNGTMPREVARDPQLCEKLTVLCSAPGTLKTLARYAVRRSLGLQYLPDAVKGLPLPASLKEYLLLLE", "chain 2": "[…]", "chain 3": "[…]"}, "B3": {"name": "ASB8^ΔN16/R197A•ELOB/C (complex)", "chain 1": "SLSERLIRTIAAIRSFPHDNVEDLIRGGADVNCTHGTLKPLHCACMVSDADCVELLLEKGAEVNALDGYNRTALHYAAEKDEACVEVLLEYGANPNALDGNRDTPLHWAAFKNNAECVRALLESGASVNALDYNNDTPLSWAAMKGNLESVSILLDYGAEVRVINLIGQTPISRLVALLVAGLGTEKEDSCFELLHRAVGHFELRKNGTMPREVARDPQLCEKLTVLCSAPGTLKTLARYAVRRSLGLQYLPDAVKGLPLPASLKEYLLLLE", "chain 2": "[…]", "chain 3": "[…]"}, "B4": {"name": "ASB8^ΔN16/R197A (domain or fragment)", "chain": "SLSERLIRTIAAIRSFPHDNVEDLIRGGADVNCTHGTLKPLHCACMVSDADCVELLLEKGAEVNALDGYNRTALHYAAEKDEACVEVLLEYGANPNALDGNRDTPLHWAAFKNNAECVRALLESGASVNALDYNNDTPLSWAAMKGNLESVSILLDYGAEVRVINLIGQTPISRLVALLVAGLGTEKEDSCFELLHRAVGHFELRKNGTMPREVARDPQLCEKLTVLCSAPGTLKTLARYAVRRSLGLQYLPDAVKGLPLPASLKEYLLLLE"}}, "key": {"[1]": {"target": "KPT-UTSW1-conjugated XPO1 (human, UniProt O14980 1-1071)", "sequence (O14980 whole entry)": "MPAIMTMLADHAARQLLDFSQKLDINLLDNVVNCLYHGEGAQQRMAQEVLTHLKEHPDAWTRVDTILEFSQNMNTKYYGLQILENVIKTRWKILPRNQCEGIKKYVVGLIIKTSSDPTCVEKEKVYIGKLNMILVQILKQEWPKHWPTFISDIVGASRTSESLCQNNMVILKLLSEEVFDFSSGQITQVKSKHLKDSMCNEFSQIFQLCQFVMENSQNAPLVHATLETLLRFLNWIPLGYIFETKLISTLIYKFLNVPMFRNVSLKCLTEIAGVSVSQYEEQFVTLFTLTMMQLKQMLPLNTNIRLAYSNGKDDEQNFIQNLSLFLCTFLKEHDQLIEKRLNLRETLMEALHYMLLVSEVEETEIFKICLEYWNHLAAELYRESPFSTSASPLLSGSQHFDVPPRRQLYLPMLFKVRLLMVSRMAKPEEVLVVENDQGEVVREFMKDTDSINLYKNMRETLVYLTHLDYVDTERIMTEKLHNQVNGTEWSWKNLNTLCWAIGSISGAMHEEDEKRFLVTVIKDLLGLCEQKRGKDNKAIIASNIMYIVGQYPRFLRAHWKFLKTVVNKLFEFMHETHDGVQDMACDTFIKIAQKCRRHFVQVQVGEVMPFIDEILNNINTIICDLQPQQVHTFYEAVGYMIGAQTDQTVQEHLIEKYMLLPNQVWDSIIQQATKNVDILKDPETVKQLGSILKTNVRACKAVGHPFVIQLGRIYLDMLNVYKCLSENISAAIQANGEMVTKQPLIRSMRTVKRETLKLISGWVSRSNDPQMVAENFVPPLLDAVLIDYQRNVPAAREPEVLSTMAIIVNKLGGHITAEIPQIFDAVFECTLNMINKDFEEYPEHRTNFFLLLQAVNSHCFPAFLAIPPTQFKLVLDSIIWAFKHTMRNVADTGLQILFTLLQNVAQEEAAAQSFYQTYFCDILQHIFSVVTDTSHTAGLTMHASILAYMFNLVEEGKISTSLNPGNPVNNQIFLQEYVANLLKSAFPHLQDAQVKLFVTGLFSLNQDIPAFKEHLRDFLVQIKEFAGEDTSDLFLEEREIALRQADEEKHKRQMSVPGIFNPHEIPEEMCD", "test": "cryo-EM structure"}, "[2]": {"target": "KPT-185-conjugated XPO1 (human, UniProt O14980 1-1071, Cys528 covalently conjugated to KPT-185)", "sequence (O14980 whole entry)": "as above", "test": "cryo-EM structure"}, "[3]": {"target": "KPT-127-conjugated XPO1 (human, UniProt O14980 1-1071, Cys528 covalently conjugated to KPT-127)", "sequence (O14980 whole entry)": "as above", "test": "cryo-EM structure"}, "[4]": {"target": "T1, selinexor-conjugated XPO1 (human, UniProt O14980 1-1071, Cys528 covalently conjugated to selinexor (KPT-330))", "T1 sequence (O14980 whole entry)": "as above", "test": "cryo-EM structure"}, "[5]": {"target": "exportin 1 (XPO1), unliganded (human, UniProt O14980 1-1071)", "sequence (O14980 whole entry)": "as above", "test": "ITC"}, "[6]": {"target": "T1, selinexor-conjugated XPO1", "test": "ITC"}}, "data": [{"binder": "B1", "values": [{"measurement": "binding result", "setting": "[1]", "result": "binds"}, {"measurement": "binding result", "setting": "[2]", "result": "binds"}, {"measurement": "binding result", "setting": "[3]", "result": "binds"}, {"measurement": "binding result", "setting": "[4]", "result": "binds"}]}, {"binder": "B2", "values": [{"measurement": "Kd", "setting": "[5]", "result": 11000, "unit": "nM"}, {"measurement": "Kd", "setting": "[6]", "result": 29, "unit": "nM"}]}, {"binder": "B3", "values": [{"measurement": "Kd", "setting": "[6]", "result": 58, "unit": "nM"}]}, {"binder": "B4", "values": [{"measurement": "binding result", "setting": "[4]", "result": "binds"}]}]}
